Tests used:
[1] = target: Vibrio vulnificus FrsA, wild type, SEQ ID NO: 2, + phospho-IIA^Glc (Vibrio vulnificus, UniProt Q8DF91); assay: FrsA pyruvate decarboxylation in the presence of phospho-IIA^Glc; format: biochemical
Source text: (§1) Genomic DNA from V. vulnificus(3) was used as template and as primers Crrexp-F (5′-[…]-3′(SEQ ID NO: 13); BamHI restriction site is underlined) and Crrexp-R (5′-[…]-′3(SEQ ID NO: 14); PstI restriction site is underlined) are used to amplify crr gene of 522-bp in size encoding full length IIA^Glc. The amplified products were then digested with BamHI and PstI and cloned into a vector pQE30 to obtain pQE-crr. Phosphorylated and non-phosphorylated recombinant IIA^Glc proteins were overexpressed in E. coli JM109 in a medium comprising 1.0 mM phophoenolpyruvate or 1.0% glucose, respectively. […]
(§2) FrsA enzymatic analysis was performed in 50 mM sodium phosphate solution (pH 7.0) containing 1 mM DTT and various concentrations of pyruvate. […] The residual NADH in the reaction mixture was determined by measuring absorption at 340 nm. […] The amount of carbon dioxide dissolved in the reaction solution was quantified by spectrophotometry after the reaction solution was treated with 10 mM calcium hydroxide (10). Concentrations of the pyruvate and acetaldehyde in the cell lysates and reaction mixtures were determined using Pyruvate Assay Lit (BioVision, USA) and Acetaldehyde UV-method kit (Roche, USA), respectively according to the manufacturer's instruction. […]
(§3) Values of Km and Kcat were calculated as follows. […]

[2] = target: Vibrio vulnificus FrsA, wild type, SEQ ID NO: 2, + dephospho-IIA^Glc (Vibrio vulnificus, UniProt Q8DF91); assay: FrsA pyruvate decarboxylation in the presence of dephospho-IIA^Glc; format: biochemical
Sequence of Vibrio vulnificus FrsA, wild type, SEQ ID NO: 2, + dephospho-IIA^Glc (A0A3Q0L1G8 entry or part of it): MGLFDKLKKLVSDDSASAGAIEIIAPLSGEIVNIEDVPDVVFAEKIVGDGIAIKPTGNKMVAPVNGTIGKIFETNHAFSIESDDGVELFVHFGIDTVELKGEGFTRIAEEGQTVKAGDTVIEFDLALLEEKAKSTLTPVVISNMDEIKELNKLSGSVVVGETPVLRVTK
Sequence of Vibrio vulnificus FrsA, wild type, SEQ ID NO: 2, + dephospho-IIA^Glc (Q8DF91 whole entry): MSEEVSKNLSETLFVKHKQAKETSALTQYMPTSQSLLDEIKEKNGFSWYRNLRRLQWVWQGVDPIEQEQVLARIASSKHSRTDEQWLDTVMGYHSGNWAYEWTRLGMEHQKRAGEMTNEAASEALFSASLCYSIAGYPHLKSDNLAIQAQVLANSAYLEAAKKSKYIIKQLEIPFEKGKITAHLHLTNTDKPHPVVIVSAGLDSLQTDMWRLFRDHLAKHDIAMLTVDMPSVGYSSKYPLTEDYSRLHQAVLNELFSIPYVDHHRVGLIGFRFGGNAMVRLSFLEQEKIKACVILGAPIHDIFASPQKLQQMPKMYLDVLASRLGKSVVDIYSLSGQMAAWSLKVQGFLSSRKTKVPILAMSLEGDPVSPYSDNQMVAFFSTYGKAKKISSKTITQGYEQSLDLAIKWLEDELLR
Source text: as §1, §2, §3

CC(=O)C(=O)O = assay: FrsA-catalysed pyruvate decarboxylation, ADH/NADH coupled acetaldehyde assay; format: biochemical, Vibrio vulnificus; settings: other: wild-type FrsA, pH 7.0, 37° C., 1 nM FrsA
Procedure: FrsA enzymatic analysis was performed in 50 mM sodium phosphate solution (pH 7.0) containing 1 mM DTT and various concentrations of pyruvate. To measure the amount of acetaldehyde produced from pyruvate, 2 mM NADH and 3.7 U of […] was added to the FrsA reaction mixture (8). Cell lysates from wild-type E. coli and frsA mutants (9) were used in the range of 0.005 to 1 mg in amount. The acetaldehyde reaction was initiated by adding FrsA (1 nM) and incubated at 37° C. for 5 min and stopped by adding 50 mM potassium hydrogen phthalate buffer (pH3.0). The residual NADH in the reaction mixture was determined by measuring absorption at 340 nm. For CO2 measurement, FrsA enzyme reaction was performed in 50 mM Tris-HCl buffer (pH 7.0). The amount of carbon dioxide dissolved in the reaction solution was quantified by spectrophotometry after the reaction solution was treated with 10 mM calcium hydroxide (10). Concentrations of the pyruvate and acetaldehyde in the cell lysates and reaction mixtures were determined using Pyruvate Assay Lit (BioVision, USA) and Acetaldehyde UV-method kit (Roche, USA), respectively according to the manufacturer's instruction. To increase the sensitivity of the Acetaldehyde UV-method kit, the reaction mixture was additionally treated with dye (50 ml of 1.0% Tween 20 solution containing 40 mg iodonitrotetrazolium chloride and 10 mg phenazine methosulfate) followed by absorption measurement at 490 nm (11).
Values of Km and Kcat were calculated as follows. The concentration of reaction products were calculated in the mM unit from the absorption values which were obtained for a total of 1 min for each substrate concentration (S). Then initial reaction rate (Vo) for each concentration of the substrate was determined (here the unit is mM(product)/sec/mg(enzyme)). […] Keat value expressed in the unit of sec^−1 was calculated by changing the unit weight of the enzyme to the concentration in mM in the calculated Vmax (mM(product)/sec/mg(enzyme)).

Sequence of Vibrio vulnificus FrsA, wild type, SEQ ID NO: 2, + phospho-IIA^Glc (Q8DF91 whole entry): as above
Sequence of Vibrio vulnificus FrsA, wild type, SEQ ID NO: 2, + phospho-IIA^Glc (A0A3Q0L1G8 entry or part of it, further chain): as the sequence (A0A3Q0L1G8 entry or part of it) above

Row | Compound | Km [1] [µM] | Km [2] [µM] | Km (CC(=O)C(=O)O) [µM] | kcat (CC(=O)C(=O)O) [s⁻¹] | kcat/Km (CC(=O)C(=O)O) [M⁻¹ s⁻¹]
1 | CC(=O)C(=O)O [pyruvate] | 390 ± 10 | 390 ± 30 |  |  | 
2 | Vibrio vulnificus FrsA, wild type, SEQ ID NO: 2 (Vibrio vulnificus CMCP6) |  |  | 390 ± 20 | 1372 ± 11 | 3.52e+06 ± 183000

From patent publication US9567576B2, “Strain expressing FRSA and method for producing ethanol using same” (SOGANG UNIVERSITY RESEARCH FOUNDATION, priority 2012, dated 2017)
